In patent US20210122815A1 (AKESO BIOPHARMA, published 2021):

Target: IL-17A (24-155) protein (human, UniProt Q16552 24-155)
Experiment: indirect ELISA screening of hybridomas

IL-17A (24-155) protein, sequence (Q16552 24-155): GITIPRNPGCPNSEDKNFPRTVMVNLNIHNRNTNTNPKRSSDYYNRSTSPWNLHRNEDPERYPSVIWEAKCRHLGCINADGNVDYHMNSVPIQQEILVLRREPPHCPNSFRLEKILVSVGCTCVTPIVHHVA

| Binder | binding result |
| --- | --- |
| monoclonal murine antibody 13E9 (antibody, V domains shown, Mouse hybridoma antibody purified on protein A; also called antibody secreted by hybridoma cell line LT006 (IL-17A-13E9)) VH: EVKLQESGPGLVKPSQSLSLTCTVTSYSFTSDYAWSWIRQFPGIKLEWMGYITYSGVTSYNPSLKSRISITRDTSKNQFFLQLNSVTTEDTATYYCARADYDSYYTMDYWGQGTSVTVSS VL: DIQLTQSPLSLPVSLGDQASISCRSSQSLVHSNGNTYLHWYLQKPGQSPRLLIYKVSNRFSGVPDRFSGSGSGTDFTLKISRVEAEDLGVYFCSQSTHFWTFGGGTKLEIK | binds |
| monoclonal murine antibody 2G2 (antibody, V domains shown, Mouse hybridoma antibody purified on protein A; also called antibody secreted by hybridoma cell line LT007 (IL-17A-2G2)) VH: EVQLEQSGSELRSPGSSVKLSCKDFDSEVFPIADMSWVRQKPGHGFEWIGDILPSFGRTIYGEKFEDKAKVDADTVSNTAYLELNSLTSEDSAIYYCARGNYGFAYWGQGTLVTVSA VL: not shown | binds |
